For assay [1], the target named is Abeta1-42 fibrils (UniProt P05067). Kind of assay: ELISA, fibrils coated, antibody titrated. For orientation: In an ELISA, binding on a coated surface is turned into a signal by an enzyme label.
Assay [2] has as its target synthetic monomeric Abeta1-40 peptide (UniProt P05067). As to the kind of experiment: ELISA, peptide coated, antibody titrated.
The target in assay [3] is synthetic monomeric Abeta1-42 peptide (UniProt P05067). As to the kind of experiment: ELISA, peptide coated, antibody titrated.

One may read the EC50 as the concentration that produces a half-maximal response.

B1: antibody NI-103 (antibody, V domains shown)
VH: EVQLHQSGPELVKPGASVKISCKTSGYTFTEYTMHWVKQSHGKSLEWIGGVNPYNDNTSYIRKLQGKVTLTVDRSSSTAYMELRSLTSEDSAVYFCARYGGLRPYYFPMDFWGQGTSVTVSS
VL: QVVLSQSPAILSASPGERVTLTCRASSSVNYMHWYQQKPGSSPKAWIYATSNLASGVPDRFSASGSGTSYSLTISRVEAEDAATYYCQQWRTNPPTFGAGTKLELKR
Consider B1, for which the results for the EC50 in assay [1], in assay [2] and in assay [3] were 0.07 nM, 0.04 nM and 0.061 nM, respectively.

The values are drawn from patent US20100239570A1.
